In test [1] the target is T1, human Tim-3 on cells (Tim-3 DO11.10 cells, a human Tim-3 expressing DO11.10 cell line) (human, UniProt Q8TDQ0 22-301). Briefly: cell-based or functional assay.
Test [2] deals with T2, human Tim-3-Fc (R&D Systems) (human, UniProt Q8TDQ0 22-130, biotinylated in the phosphatidylserine assay; ruthenylated (sulfo-tag NHS-ester) in the galectin-9 assay).
T2 construct: Bought from R&D Systems; also called hTIM-3-Fc; hTIM-3-Fc Biotin; not shown: Fc part of the bought fusion protein
The experiment in a line: flow cytometry, blocking of biotinylated hTIM-3-Fc binding to phosphatidylserine on camptothecin-treated DO11.10 cells; blocking of hTIM-3-Fc Biotin binding to phosphatidylserine on camptothecin-treated DO11.10 cells. A general note: A flow cytometer gives signals particle by particle.

The target of test [3] is T1, human Tim-3 on cells (Tim-3 DO11.10 …). Briefly: flow cytometry, A488-labelled antibody on Tim-3 DO11.10 cells.
Test [4] has as its target T2, human Tim-3-Fc (R&D Systems). Briefly: ELISA, plate coated with human Tim-3-Fc.
The target of test [5] is T3, human Tim-3-IgV-Fc single arm antigen (SAG) (human, UniProt Q8TDQ0 22-130).
T3 construct: Single arm format: the second (Fc only) chain is not described; also called Tim-3 SAG; not shown: Fc part
Briefly: SPR, Biacore T100, antibody captured by Human Fab Binder, Tim-3 SAG as analyte, 1:1 Langmuir with mass transport.

Test [6] concerns the target T2, human Tim-3-Fc (R&D Systems). Briefly: MSD blocking assay, ruthenylated hTim-3-Fc binding to plate-bound galectin-9-biotin.
Another test has as its target T4, hTim-3-IgV-FLAG (human, UniProt Q8TDQ0 22-130, density indicating glycosylation at Asn99).
T4 construct: Purified from 293HEK supernatant with anti-FLAG resin; also called hTim-3-FLAG; not shown: FLAG tag
Briefly: SPR, Biacore T200, Fab captured, hTim-3-IgV-FLAG as analyte, HBS-EP, 25 C, 1:1 binding. Background: In SPR one partner is held on a chip, and binding of the other changes the refractive index at the surface.

Where a chain is given by its changes, count along the chain named.

The source of these data is patent US20180057591A1 (Eli Lilly, published 2018).

B1: Antibody A (antibody, human IgG1, kappa, V domains shown)
VH: EVQLLESGGGLVQPGGSLRLSCAASGFTFSSYYMSWVRQAPGKGLEWVSAISGSGGSTYYADSVKGRFTISRDNSKNTLYLQMNSLRAEDTAVYYCARYARTAFDLWGQGTLVTVSS
VL: DIVMTQSPSSLSASVGDGVTITCQASQDIYNYLNWYQQKPGKAPKLLIYAASSLQSGVPSRFSGSGSGTDFTLTISSLQPEDFATYYCQQANSFPPTFGQGTKLEIKR
notes: also called anti-human Tim-3; Antiboby A
In general, IC50 refers to the concentration needed to halve the response being measured. Read a high IC50 as a need for much substance. What is called EC50 is the concentration that produces a half-maximal response. For orientation: Kd means the equilibrium constant for the complex coming apart. Read a low Kd as a tighter complex. The term koff denotes the rate constant with which the complex falls apart. One may read the kon as the second-order rate constant of association. For the molecule B1, in test [1], the “EC50 (nM), IL-2 production of hTim-3 DO11.10 cells with A20 cells and OVA peptide” value (shortened to “EC50 (nM), IL-2 production”) came to 3.71 nM. Besides, the IC50 in test [2] was determined as 0.32 nM. Besides, the EC50 in test [3] is 0.09 nM. In test [4], this molecule came in with an EC50 of 0.0207 nM. In test [5], binding was put at a Kd of 0.398 nM, the koff is 0.000927 s⁻¹ and the kon worked out at 2.33e+06 M⁻¹ s⁻¹. In test [6], this molecule yielded a 50% inhibitory concentration (IC50) of 5.6 nM.

B2: Antibody A-Fab (Fab, V domains shown)
VH: B1 VH
VL: B1 VL
notes: Made by clipping Antibody A with immobilized papain; also called Fab for Antibody A
B2: in the test with hTim-3-IgV-FLAG, the Kd turned out to be 7.92 nM, the koff is 0.00286 s⁻¹ and the kon stood at 362000 M⁻¹ s⁻¹.

B3: Antibody B (antibody, human IgG1, kappa, V domains shown)
VH: B1 VH with T28S, Y32F, M34F, S54N, G56R, A100Y, R101N, A103G
VL: B1 VL with Q27E, D28A, N31G, Q55P, S56I, N92Y, S93G
In the case of B3, the “EC50 (nM), IL-2 production” value in test [1] worked out at 6.08 nM. In test [5], this molecule returned a Kd of 0.158 nM, a koff of 0.000106 s⁻¹ and a kon of 675000 M⁻¹ s⁻¹.

B4: Antibody C (antibody, human IgG1, kappa, V domains shown)
VH: B1 VH with S54N, G56K, A100Y, R101N, A103G
VL: B1 VL with A50Y, L54I, Q55V
B4: the “EC50 (nM), IL-2 production” value in test [1] amounted to 3.35 nM. In test [5], this molecule displayed a Kd of 0.173 nM, a koff of 0.000138 s⁻¹ and a kon of 797000 M⁻¹ s⁻¹.
